Biological target: T1, human ATP5B protein with C-terminal V5 epitope, made in vitro from pcDNA-ATP5B (human, UniProt P06576 1-529, radioisotope-labelled (L-[35S] Pro-mix))
T1 construct: In vitro transcription and translation (TNT system); about 60 kDa; also called wild type ATP5B
Assay: GST pull-down of 35S-labelled in vitro translated human ATP5B with GST-DHFR on beads, autoradiography; condition without MTX-phenformin
Method: A 15 μl portion of this human ATP5B protein preparation liquid and 1 μg for each of the GST protein or GST-DHFR, purified on the glutathione Sepharose beads, were mixed and shaken at 4° C. for 1 hour after adding 0.3 ml of buffer A thereto. Thereafter, the protein binding to the GST protein or GST-DHFR on beads was co-precipitated by centrifugation.

T1 sequence (P06576 whole entry): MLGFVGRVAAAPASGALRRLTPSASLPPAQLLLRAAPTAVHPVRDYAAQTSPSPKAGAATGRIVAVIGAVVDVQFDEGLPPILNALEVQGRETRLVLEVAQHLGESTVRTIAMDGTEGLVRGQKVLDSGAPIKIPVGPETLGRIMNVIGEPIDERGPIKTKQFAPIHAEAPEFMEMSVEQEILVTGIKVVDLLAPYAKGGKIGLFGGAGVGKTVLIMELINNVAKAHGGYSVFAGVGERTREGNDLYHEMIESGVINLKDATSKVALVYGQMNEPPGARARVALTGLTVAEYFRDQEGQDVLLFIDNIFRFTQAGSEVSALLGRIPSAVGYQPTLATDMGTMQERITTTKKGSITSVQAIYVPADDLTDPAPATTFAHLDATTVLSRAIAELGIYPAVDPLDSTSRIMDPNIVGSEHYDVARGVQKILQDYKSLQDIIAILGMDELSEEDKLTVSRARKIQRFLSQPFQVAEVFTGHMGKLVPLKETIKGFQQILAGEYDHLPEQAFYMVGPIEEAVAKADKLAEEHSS

- binding result: no binding
B1: GST fusion DHFR protein (other, human, UniProt P00374 1-187, looked up)
chain: MVGSLNCIVAVSQNMGIGKNGDLPWPPLRNEFRYFQRMTTTSSVEGKQNLVIMGKKTWFSIPEKNRPLKGRINLVLSRELKEPPQGAHFLSRSLDDALKLTEQPELANKVDMVWIVGGSSVYKEAMNHPGHLKLFVTRIMQDFESDTFFPEIDLEKYKLLPEYPGVLSDVQEEKGIKYKFEVYEKND
notes: domain: complete length; Expressed in E. coli BL21 and purified on glutathione Sepharose beads (45 kDa); also called GST-DHFR; not shown: GST tag of vector pGEX-6P-1 (Amersham)
